The target of assay [1] is T1, short form of human CCRL2 (CRAM-B) (human) (UniProt O00421).
T1 sequence: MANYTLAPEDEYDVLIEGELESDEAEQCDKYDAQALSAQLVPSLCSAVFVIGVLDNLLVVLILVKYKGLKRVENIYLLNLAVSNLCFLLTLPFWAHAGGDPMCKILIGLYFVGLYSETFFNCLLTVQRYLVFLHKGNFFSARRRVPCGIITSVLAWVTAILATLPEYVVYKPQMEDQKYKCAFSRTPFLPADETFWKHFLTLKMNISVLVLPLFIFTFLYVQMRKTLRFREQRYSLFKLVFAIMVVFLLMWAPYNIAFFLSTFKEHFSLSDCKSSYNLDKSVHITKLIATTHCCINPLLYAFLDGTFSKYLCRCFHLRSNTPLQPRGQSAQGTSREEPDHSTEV
Nature of the assay: cell-based or functional assay.

The target of assay [2] is Corticotropin Releasing Factor Receptor (CRFR), CRF-R1 (UniProt P34998). Briefly: cell-based or functional assay.
Sequence of UniProt P34998 (P34998 24-415 limits assumed): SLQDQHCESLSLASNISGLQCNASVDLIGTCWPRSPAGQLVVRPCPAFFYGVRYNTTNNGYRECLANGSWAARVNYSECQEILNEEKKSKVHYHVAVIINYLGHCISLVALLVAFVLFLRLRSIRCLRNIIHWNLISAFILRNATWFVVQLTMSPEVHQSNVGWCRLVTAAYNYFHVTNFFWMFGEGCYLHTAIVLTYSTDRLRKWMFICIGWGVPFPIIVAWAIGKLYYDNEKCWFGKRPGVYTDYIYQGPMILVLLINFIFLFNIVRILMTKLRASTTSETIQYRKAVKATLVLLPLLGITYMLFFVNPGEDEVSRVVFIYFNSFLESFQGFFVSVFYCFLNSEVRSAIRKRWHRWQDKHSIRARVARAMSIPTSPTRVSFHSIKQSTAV

The values below come from patent US20070036781A1.

On to “Monocyte chemotactic protein-1 (MCP-1) (from UniProt P13500 24-99) (ligand)”, for which, in assay [1], the LacZ activity, Gq-transplant yeast, 10^-6 M ligand was 5.7 LacZ units.
Turning to “Monocyte chemotactic protein-3 (MCP-3) (from UniProt P80098 24-99) (ligand)”, in assay [1], the LacZ activity, Gi2-transplant yeast, 10^-6 M ligand amounted to 2.2 LacZ units and the chemotaxis of CCRL2 transfected cells, 10 nM chemokine; more cells passing across the membrane than untreated cells was 35%.

B1: macrophage inflammatory protein-4 (MIP-4) (ligand)
chain: AQVGTNKELCCLVYTSWQIPQKFIVDYSETSPQCPKPGVILLTKRGRQICADPNKKWVQKYISDLKLNA
Consider B1, for which, in assay [1], the LacZ activity, Gi3-transplant yeast, 10^-6 M ligand turned out to be 6.5 LacZ units and the chemotaxis of CCRL2 transfected cells, 10 nM chemokine; more cells passing across the membrane than untreated cells came out at 35%.
For the molecule SEEPPISLDLTFHLLREVLEMARAEQLAQQAHSNRKLMEII (peptide, UniProt P06850 154-194, looked up) [Corticotrophin releasing factor (CRF)], in assay [2], the LacZ activity, Gi2-transplant yeast, 10^-6 M ligand came out at 6.4 LacZ units and the LacZ activity, Gi3-transplant yeast, 10^-6 M ligand turned out to be 17.2 LacZ units.
With DNPSLSIDLTFHLLRTLLELARTQSQRERAEQNRIIFDSV (peptide, UniProt P55089 83-122, looked up) [Urocortin], the LacZ activity, Gq-transplant yeast, 10^-6 M ligand in assay [2] is 6.9 LacZ units.
